Data on eight substances can be found in paper PMC8253215.

The target in test [1] is rat luteinizing hormone/chorionic gonadotropin receptor (rLH/CGR) (rat) (UniProt P16235).
For test [2], the target named is rat follicle-stimulating hormone receptor (rFSHR) (rat) (UniProt P20395).
Sequence of UniProt P20395 (P20395 18-692): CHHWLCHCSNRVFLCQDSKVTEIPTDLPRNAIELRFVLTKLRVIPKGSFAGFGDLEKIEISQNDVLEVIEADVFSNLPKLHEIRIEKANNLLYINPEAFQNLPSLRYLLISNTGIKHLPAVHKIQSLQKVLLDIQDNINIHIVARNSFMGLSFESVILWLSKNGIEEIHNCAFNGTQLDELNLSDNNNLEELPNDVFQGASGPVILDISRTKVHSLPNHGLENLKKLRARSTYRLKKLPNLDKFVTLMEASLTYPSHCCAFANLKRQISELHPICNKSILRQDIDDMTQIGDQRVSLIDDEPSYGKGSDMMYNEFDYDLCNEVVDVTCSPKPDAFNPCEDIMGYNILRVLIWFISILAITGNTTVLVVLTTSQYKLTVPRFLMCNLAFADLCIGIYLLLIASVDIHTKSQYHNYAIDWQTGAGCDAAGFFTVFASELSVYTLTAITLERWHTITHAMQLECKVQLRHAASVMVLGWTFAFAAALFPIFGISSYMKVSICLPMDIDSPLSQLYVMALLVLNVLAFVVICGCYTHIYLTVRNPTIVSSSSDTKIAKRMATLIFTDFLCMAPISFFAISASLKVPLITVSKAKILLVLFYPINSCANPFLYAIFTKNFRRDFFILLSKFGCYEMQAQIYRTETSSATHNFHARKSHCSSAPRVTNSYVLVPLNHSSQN

Sequence of UniProt P16235 (P16235 27-700): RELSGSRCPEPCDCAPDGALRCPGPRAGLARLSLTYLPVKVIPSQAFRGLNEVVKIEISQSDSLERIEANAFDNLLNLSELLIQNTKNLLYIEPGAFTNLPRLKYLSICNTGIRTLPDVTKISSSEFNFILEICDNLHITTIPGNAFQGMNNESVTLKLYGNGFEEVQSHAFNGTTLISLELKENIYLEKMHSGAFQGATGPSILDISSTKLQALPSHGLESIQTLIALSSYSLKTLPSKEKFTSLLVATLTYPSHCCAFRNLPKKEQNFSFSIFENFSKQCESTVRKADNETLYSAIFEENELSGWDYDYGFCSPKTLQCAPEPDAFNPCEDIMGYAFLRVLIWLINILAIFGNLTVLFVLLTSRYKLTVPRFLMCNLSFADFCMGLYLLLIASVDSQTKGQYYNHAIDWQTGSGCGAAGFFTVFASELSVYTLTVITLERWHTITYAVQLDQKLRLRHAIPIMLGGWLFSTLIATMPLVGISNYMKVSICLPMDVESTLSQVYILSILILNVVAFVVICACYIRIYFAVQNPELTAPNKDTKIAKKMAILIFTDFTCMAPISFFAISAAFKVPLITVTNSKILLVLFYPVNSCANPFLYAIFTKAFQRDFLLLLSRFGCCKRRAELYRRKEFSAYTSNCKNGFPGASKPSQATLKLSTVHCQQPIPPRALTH

Take “rec-eCGβF103P/α (from UniProt P08751 21-169; P01220 25-120) (ligand)”: the EC50 of cAMP response (HTRF) in CHO-K1 cells expressing rLH/CGR in test [1] amounted to 0.018 ng/mL. In test [2], this substance showed an EC50 of cAMP response (HTRF) in CHO-K1 cells expressing rFSHR of 0.99 ng/mL.

On to “rec-eCGβF103P;R104K/α (from UniProt P08751 21-169; P01220 25-120) (ligand)”, for which the EC50 of cAMP response (HTRF) in CHO-K1 cells expressing rLH/CGR in test [1] amounted to 0.037 ng/mL. Moreover, the EC50 of cAMP response (HTRF) in CHO-K1 cells expressing rFSHR in test [2] was 6.4 ng/mL.

In test [1], “rec-eCGβR104K/α (from UniProt P08751 21-169; P01220 25-120) (ligand)” showed an EC50 of cAMP response (HTRF) in CHO-K1 cells expressing rLH/CGR of 0.033 ng/mL. The same substance showed an EC50 of cAMP response (HTRF) in CHO-K1 cells expressing rFSHR in test [2] of 0.98 ng/mL.

“rec-eCGβV102G/α (from UniProt P08751 21-169; P01220 25-120) (ligand)” displayed an EC50 of cAMP response (HTRF) in CHO-K1 cells expressing rLH/CGR in test [1] of 0.015 ng/mL. The substance further registered an EC50 of cAMP response (HTRF) in CHO-K1 cells expressing rFSHR in test [2] of 0.79 ng/mL.

Substance “rec-eCGβV102G;F103P/α (from UniProt P08751 21-169; P01220 25-120) (ligand)” returned an EC50 of cAMP response (HTRF) in CHO-K1 cells expressing rLH/CGR in test [1] of 0.016 ng/mL. In addition, the EC50 of cAMP response (HTRF) in CHO-K1 cells expressing rFSHR in test [2] turned out to be 1.75 ng/mL.

“rec-eCGβV102G;F103P;R104K/α (from UniProt P08751 21-169; P01220 25-120) (ligand)” came in with an EC50 of cAMP response (HTRF) in CHO-K1 cells expressing rLH/CGR in test [1] of 0.013 ng/mL. The substance also yielded an EC50 of cAMP response (HTRF) in CHO-K1 cells expressing rFSHR in test [2] of 2.86 ng/mL.

As for “rec-eCGβV102G;R104K/α (from UniProt P08751 21-169; P01220 25-120) (ligand)”, in test [1], the EC50 of cAMP response (HTRF) in CHO-K1 cells expressing rLH/CGR was found to be 0.038 ng/mL. In addition, the EC50 of cAMP response (HTRF) in CHO-K1 cells expressing rFSHR in test [2] was 5.45 ng/mL.

In test [2], “single-chain recombinant equine chorionic gonadotropin β/α, wild type (rec-eCGβ/α-wt) (from UniProt P08751 21-169; P01220 25-120) (ligand)” registered an EC50 of cAMP response (HTRF) in CHO-K1 cells expressing rFSHR of 0.16 ng/mL.
